Target: T1, C3b (human, UniProt P01024 23-667; P01024 749-1663, free SH group of the C3b thioester blocked with 20 mM iodoacetamide)
T1 construct: Complement C3 beta chain, human; Complement C3b alpha' chain, human: the alpha chain without the ANA/C3a domain; here cut by trypsin; 12 domains; calculated mass 179.3 kDa; also called active C3b; source: made from C3 purified from human plasma by trypsin (1% w/w, 120 s, 37 °C), iodoacetamide added, purified on Superose 6
Assay: AUC; sedimentation velocity, 50,000 rpm, 20 °C; 1:1 mixture of 5.5 uM C3b and 5.5 uM FH incubated at 4 °C overnight; no zinc
Conditions: both partners purified

stoichiometry N: 1
B1: complement Factor H (FH), wild-type (natural protein, human, UniProt P08603 19-1231, looked up)
chain: EDCNELPPRRNTEILTGSWSDQTYPEGTQAIYKCRPGYRSLGNVIMVCRKGEWVALNPLRKCQKRPCGHPGDTPFGTFTLTGGNVFEYGVKAVYTCNEGYQLLGEINYRECDTDGWTNDIPICEVVKCLPVTAPENGKIVSSAMEPDREYHFGQAVRFVCNSGYKIEGDEEMHCSDDGFWSKEKPKCVEISCKSPDVINGSPISQKIIYKENERFQYKCNMGYEYSERGDAVCTESGWRPLPSCEEKSCDNPYIPNGDYSPLRIKHRTGDEITYQCRNGFYPATRGNTAKCTSTGWIPAPRCTLKPCDYPDIKHGGLYHENMRRPYFPVAVGKYYSYYCDEHFETPSGSYWDHIHCTQDGWSPAVPCLRKCYFPYLENGYNQNYGRKFVQGKSIDVACHPGYALPKAQTTVTCMENGWSPTPRCIRVKTCSKSSIDIENGFISESQYTYALKEKAKYQCKLGYVTADGETSGSITCGKDGWSAQPTCIKSCDIPVFMNARTKNDFTWFKLNDTLDYECHDGYESNTGSTTGSIVCGYNGWSDLPICYERECELPKIDVHLVPDRKKDQYKVGEVLKFSCKPGFTIVGPNSVQCYHFGLSPDLPICKEQVQSCGPPPELLNGNVKEKTKEEYGHSEVVEYYCNPRFLMKGPNKIQCVDGEWTTLPVCIVEESTCGDIPELEHGWAQLSSPPYYYGDSVEFNCSESFTMIGHRSITCIHGVWTQLPQCVAIDKLKKCKSSNLIILEEHLKNKKEFDHNSNIRYRCRGKEGWIHTVCINGRWDPEVNCSMAQIQLCPPPPQIPNSHNMTTTLNYRDGEKVSVLCQENYLIQEGEEITCKDGRWQSIPLCVEKIPCSQPPQIEHGTINSSRSSQESYAHGTKLSYTCEGGFRISEENETTCYMGKWSSPPQCEGLPCKSPPEISHGVVAHMSDSYQYGEEVTYKCFEGFGIDGPAIAKCLGEKWSHPPSCIKTDCLSLPSFENAIPMGEKKDVYKAGEQVTYTCATYYKMDGASNVTCINSRWTGRPTCRDTSCVNPPTVQNAYIVSRQMSKYPSGERVRYQCRSPYEMFGDEEVMCLNGNWTEPPQCKDSTGKCGPPPPIDNGDITSFPLSVYAPASSVEYQCQNLYQLEGNKRITCRNGQWSEPPKCLHPCVISREIMENYNIALRWTAKQKLYSRTGESVEFVCKRGYRLSSRSHTLRTTCWDGKLEYPTCAKR
notes: Complement factor H, human, 20 SCR domains (SCR-1/20); Calculated mass 154.4 kDa; source: gel filtration
